Data as given in the nanobody polyreactivity screen of Harvey et al. (2022).

Experiment: yeast display, Sf9 membrane polyspecificity reagent, FACS + sequencing; frameworks hold sequencing errors
Outline: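 Nanobodies came from a synthetic yeast display library in Saccharomyces cerevisiae BJ5465, induced with galactose for 36–48 hours and stained for 1 hour at 4 °C with 10% biotinylated, detergent-solubilized Sf9 membrane reagent. Cells were enriched on streptavidin microbeads and then FACS-sorted, with low and high (top ~1%) gates set on anti-HA fluorescence for expression and streptavidin fluorescence for reagent binding. Each polyreactivity label reflects the gate a clone came from. Genes were amplified by colony PCR, sequenced by MiSeq 2 × 250 and filtered by CDR length.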

## QVQLVESGGGLVQAGGSLRLSCAASGFIFPVYAMGWYRQAPGKERELVAAITDSGDSTYYADSVKGRFTISRDNAKNTVYLQMNSLKPEDTAVYYCAAQVQYPRWYRSGKYDYWGQGTQVTVSS
  polyreactivity (PSR sort gate): low polyreactivity

## QVQLVESGGGLVQAGGSLRLSCAASGRTFRSNAMGWYRQAPGKERELVAAITASGGNTYYADSVKGRFTISRDNAKNTVYLQMNSLKPEDTAVYYCAAVSRYNYGTNPYYYWGQGTQVNVSS
  polyreactivity (PSR sort gate): high polyreactivity

## QVQLVESGGGLVQAGGSLRLSCAASGITFAYYAMGWSRQAPGKERELVAAIRWSGGDTYYADSVKGRFTISRDNAKNTVYLQMNSLKPEDTAVYYCAADTTWGYDYWGQGTQVTVSS
  polyreactivity (PSR sort gate): low polyreactivity

## QVHLVESGGGLVQAGGSLRLSCAAYGRIFPLYTMGWYRQAPGKEREFVAAISRTGGRTYYADSVKGRFTISRDNAKNTVYLQMNSLKPEDTAVYYCAAPYFGKRQIREYYWGQGTQVTVSS
  polyreactivity (PSR sort gate): high polyreactivity

## QVQLVESGGGLVQAGGSLRLSCAASGFIFSYYAMGWYRQAPGKERELVAAISRSGGSTYYADSVKGRFTISRDNAKNTVYLQMNSLKPEDTAVYYCAARYWRRYGQGYRYDYWGQGTQVTVSS
  polyreactivity (PSR sort gate): high polyreactivity

## QVQLVESGGGLVQAGGRLRLSCAASGRTFDTNAMGWYRQAPGKQRELVAVITARGGNTSYADSVKGRFTISRDYAKNTVYLLMNRLKPEDTAVYLCAARVYRAPWTYVEGNYWGQGTQVTVSS
  polyreactivity (PSR sort gate): low polyreactivity

## QVQLAESGGGLVQAGGSLRLSCAASGRIFAFYAMGWYRQAPGKERELVAIISSAGRPYYADSVKGRFTISRDNAKYTVYLQMNSLKREDTAVYYCAAGGRARTYYYWGQGTQVTVSS
  polyreactivity (PSR sort gate): high polyreactivity

## QVQLVESGGGLVQAGGSLRLSCAASGRTFRFNAMGWYRPAPGKERELVAAIRWSGSSTYYADSVKGRFTISRDNAKNTVYLQMNSLKPEDTAVYYSAKRVKTTWFGYWGQGTQVTVSS
  polyreactivity (PSR sort gate): high polyreactivity

## QVQLVESGGGLVQAGGSLRLSCDASGSIFKYYAMGWYRQAPGKEREWVAAITIGGNTNYADSVKGRFTISRDNAKNTVYLQMNSLKPEDTAVYYCATGGYYSAIVYGGYDYWGQGTQVTVSS
  polyreactivity (PSR sort gate): low polyreactivity

## QVQLVESGGGLVQAGGSLRISCAASGFTFRKYTMGWYRQAPGKERELVAAISRRGGSTYYADSVKGRFTISRDNAKNTVYFQMNSLKPEVTAVYYCATDHIPSVGVDYWGQGTQVTVSS
  polyreactivity (PSR sort gate): high polyreactivity

## QVQLVESGGGLVQAGGSLRLSCAASGFIFYDYAMGWYRQAPGKERELVAVITSGGSTYYADSVKGRFTISRDNAKNTVYLQMNSLKPEDTAVYYCNADWVFTWYDYPNDTYDYWGQGTQVTVSS
  polyreactivity (PSR sort gate): low polyreactivity

## QVQLVESGGGLVQAGGSLRLSCAASGSIFGQNAMGWYRQAPGKERELVAAITSGAGITYYADSVKGRFTISRDNAKNTVYLQMNSLKPEDPAVYYCIAVPSWSPSPLFDYWGQGTQVTVSS
  polyreactivity (PSR sort gate): low polyreactivity

## QDQLVETGLGLVQAGGSLRLSLAASGRTFSYAKAWYRQEPGKERELVAAITKRGGSTNFADSVKGRFTISRDNAKNTVYLQMNSLKPEDTAVYYCATDPYHGSYLTYGRMDYWGQGTQVTVSS
  polyreactivity (PSR sort gate): high polyreactivity

## QVQLVESGGGLVQAGGSLRLSCATSGGTLVANAMGWSSQPPGKESEFVAVITLTAGSTSYADSVKGRLTISRDNAKNTVYLQMNSLKPEDTAVYYCNVDVYNVYNSYPYYYWGQGTQVTVSS
  polyreactivity (PSR sort gate): low polyreactivity

## QVQLVESGGGLVQAGGSLRLSCAASGSTFGTYAMGWYRQAPGKERELVATITRRGGRTYYADSVKGRFTISRDNAKNTVYLQMNSLKPEDTAVYYCNAVVRQQGAYDYWGQGTQVTVSS
  polyreactivity (PSR sort gate): high polyreactivity

## QVQLVESGGGLVQAGGSLRLSCAASGRIFYWYDMGWYRQAPGKERELVAAISTRGGSTYYADSVKGRFTISRDNAKNTVYLQMNSLKPEDTAVYYCAARANPYVLKYYYWGQGTQVTVSS
  polyreactivity (PSR sort gate): high polyreactivity

## QVQLVESGGGLVQAGGSLRLSCAASGFIFRYYAMGWYRQAPGKETELVAAINRGGGTNYADSVKGRFTISRDNAKNTVYLQLNSLKPEDTAVYYCAAVIRTVRERYGYWGQGTQVTVSS
  polyreactivity (PSR sort gate): high polyreactivity

## QVQLVESGGGLVQAGGSLRLSCAASGSTFRRNAMGWYRKAPGKERELVAAISSTGGSTRYADSVKGRFTISRDNAKNTVYLQMNSLKPEDTAVYYCAARFSASGSFYYWGQGTQVTVSS
  polyreactivity (PSR sort gate): high polyreactivity

## QVQLVESGGGLVQAGGSLRLSCAASGRIFKRNAMGWYRQAPGKERELVATISGSGGSTYYADSVKGRFTISRDNAKNTVYIQMNRLQPEDTAVYYCSATGFFARLSTIYYYWGQGTQVTVTS
  polyreactivity (PSR sort gate): high polyreactivity

## QVQLVESGGGLVQAGGSLRLSCAASGLIFYTYAMGWYRQAPGKEREFVAAISRRGGSTYYADSVKGRFTISRDNAKNTVYLQMNSLKPEDTAVYYCNARYTYPRPYEEYYYWGQGTQVTVSS
  polyreactivity (PSR sort gate): high polyreactivity

## QVQLVESGGGLVQAGGSLRLSCAASGSTLTEYAMGWYRQAPGKEREFVAAISRSAGSTYYADSVKGRFTISRDNAKNTVYLQMNSLKPDDTAVYYCAVAVRVGFDYFSGQADIYYYWGQGTQVTVSS
  polyreactivity (PSR sort gate): low polyreactivity

## QVQIVESGGGLVQARGSIRFRCAASGRIIGTNTMGWYRQAPGKERELVAAITWSGGSTYYADSVKGRFTISRDKEKTTVYLQMYSLKPEDTAVYYCNVESEYAYHWPVDYWGQGTQVSVSS
  polyreactivity (PSR sort gate): low polyreactivity

## QVKLVESGGGLVQAGGSLSLSCAASGSTIGGYAMGWYRQAPGKERELVAAIRRSGDSTYYADSVKGRFTISRDNAKNTVYLKMNRLKPEDTAVYYCAASYLHYRYRGRDYWGQGTQVTVSS
  polyreactivity (PSR sort gate): low polyreactivity

## QVQLVESGGGLVQAGGSLRLSCAASGSIFYSNAMGWSRQAPGKEREFVAAISAGGGSTYYADSVKGRFTISRDNATNTVYLQMISLKPEDTAVYYCAADYFYPYYGAMDYWGQGTQVTVSS
  polyreactivity (PSR sort gate): low polyreactivity

## QVQLVESGGGLVQAGGSLRFSCAASGSIFSLNTMGWYRQAHGKERELVAAITRGGSTYYADSVKGRFTISRDNAKNTVYLQMNSLKPEDTAVYYCAAVPGGNISAPYDYWGQGTQVTVSS
  polyreactivity (PSR sort gate): high polyreactivity

## QVQLVESGGGIVQAGGSLRLSCAASGSTFSYNAMGWYRQAPGKERELVAAISRGGITNYADSVKGRFTISRDNAKNTVYLQMNSLKPEDTAVYYCNAGYLGGPSYEYWGQGTQVTVSS
  polyreactivity (PSR sort gate): low polyreactivity

## QVQLVESGGGLVQAGGSLRLSCAASGRIFKSYAMGWYRQAPGKERELVAGITSGGGTYYADSLKGRFTISRDNAKTTVYLQMNSLKPEDTPVYYCATRTYRESTYDYWGQGTQVTVSS
  polyreactivity (PSR sort gate): high polyreactivity

## QVQLVESGGGLVQAGGSLRLSCAASGRIFYPYAMGWYRQAPGKERELVALISWGGGSTYYADSVKGRFTISRDNAKNTVYLQMNSLKPEDTAVYYCAASYVGYWYRRGYGYWGQGTQVTVSS
  polyreactivity (PSR sort gate): high polyreactivity

## QVQLVESGGGLVQAGGSLRLSCAASGSIFWSYAMGWYRQAPGKEREFVAAISGGDGTTYYADSVKGRFTISRDNAKNTVYLQMNSLKPEDTAVYYCNAVGYWYGSLEYDYWGQGTQVTVSS
  polyreactivity (PSR sort gate): low polyreactivity

## QVQLVESGGGLVQAGGSLRLSCAASGFTFYGYAMGRYRQAPGKERELVAAITFRGDRTYYADSVKGRFTISRDNAKNTVYLQMNSLKPEDTAVYYCAAERPSGWYSDLSLYIGRRGYWGQGTQVTVSS
  polyreactivity (PSR sort gate): low polyreactivity

## QVQLVESGGGLVQAGGSLRLSCAASGSIFGIYAMGWYRQAPGKERELVAAISGSGGDTYYADSVKGRFTISRDNAKNTVYLQMNSLKPEDTAVYYCAATTGAAYPFDYWGQGTQVTVSS
  polyreactivity (PSR sort gate): low polyreactivity

## QVQLGESGGGLLQAGGSLRLSCAASGRTISKNGMGWYRQAPGKERELVAAISGSGGTTYYADSVKGRFTISRDNAKNTVYLQMNSLKPEDTAVYYSADRYTVSRSGYWGLGTQVTVSS
  polyreactivity (PSR sort gate): high polyreactivity

## QVQLVESAGGLVQAGGSVRLSCAASGRIFGSYAMGWYRQAAGKERELVAAINWRGGSTFYADSVKGRFTISRDNAKNTVYLQMNSLKPEDTAVYYSARRGYLQSGDYWGHGTQVTVSS
  polyreactivity (PSR sort gate): low polyreactivity

## QVQLVESGGGLVQAGGSLRLSCAASGSTFGDYAMGWYRQAPGKERELVAAISFSDGSTYYADSVKGRFTISRDNAKNTVYLQMNSLKPEDTAVYYCAKVDYWVYRWYTYDYWGQGTQVTVSS
  polyreactivity (PSR sort gate): low polyreactivity

## QVQLVVSGGVLVQAGGSLRLSCAASGRTFASYTMGWYIQAAGKERELVAAISRGGNTYYADSVKGRFTISRDIAKNTVYLQMNSLKPDDTAVYYCAATAVKYDRRFYYWGQGTQVTVSS
  polyreactivity (PSR sort gate): high polyreactivity

## QVQLVESGGGLVQAGGSLRLSCAASGSTFTKNAMGWYRQAPGKERELVADISFSGGSTYYADSVKGRFTISRDNAKNTVYLQTNRLKPEDTAVYDCAADRHRALPRFDDWGQGTQVTVAS
  polyreactivity (PSR sort gate): low polyreactivity

## QVQLVESGGGLVQAGGSLRLSCAASGITFQYNAMGWYRQAPGKERELVAAINYSGGSTYYADSVKGRYTISRDNAKNTVYLQMNSLKPEDTAVYYCAKDGTDYSHRPGKWEFDSWGQGTQVSVSS
  polyreactivity (PSR sort gate): low polyreactivity

## QVQLVESGGGLVQAGGSLRLSCAASGSTSQINAMGWYRQAPGKERELVAAITWSGDSTYYADSVKGRFTISRDNAKNTVYLQMNSLKPEDTAVYYCAAVSRYFSTYLYDYWGQGTQVTVSS
  polyreactivity (PSR sort gate): low polyreactivity

## QVQLVESGGGLVQAGGSLRLSCAASGSTFSRNAMGWSRQAPGKERELVAAITRSGGSTYYADSVKGRFSISRDNAKNTVYLQMNSLKPEDTAVYYCAVLSVRRSYNYWGQGTQVTVSS
  polyreactivity (PSR sort gate): high polyreactivity

## QVQLVESGGGLDQAGGSLRLSCAASGRIFSPNAMGWYRQAPGKERELVAAISRIGGRTYYADSVKGRFTISRDNAKNTVYLQMNSLKPEDTGVFYCNVVATHTDFTYDFWGQGTQVTVSS
  polyreactivity (PSR sort gate): high polyreactivity

## QVQLVESGGGLVQAGGSLRLSCAASGFTFYYYAMGWYRQAPGKERELVASISSSGGSTYYADSVKGRFTISRDNAKNTVYLQMNSLKPEDTAGYYCARYRRRYDTYPGDYWGQGTQVTVSS
  polyreactivity (PSR sort gate): high polyreactivity

## QVQLVESGGGLVQAGGSLRLSCAASGFIDAYTMGWYRPAPGKERELVAAITWSGGRTSYADSVKGRFTISRDTAKNTVYLQMNSLKPEDTAGYYCAKDVTPYSPDDDYWGQGTQVTVSS
  polyreactivity (PSR sort gate): low polyreactivity

## QGQLVESGGGLVQAGGSLRLSCAASGFIFVVYAMGWYRQAPGKERELVAAITFSGGSTYYADSVKGRFTISRDNAKNTVYLQMISLKPEVTAVYYCAAAEHDREFDSWGHGTQVTVSS
  polyreactivity (PSR sort gate): low polyreactivity
